These results are taken from patent US20230406951A1 (Pfizer, published 2023).

One assay has as its target human TNFR2 (human) (UniProt P20333). Put plainly: cell-based or functional assay.
Assay [1] deals with T1, human TNFR2 (human, UniProt P20333 23-461).
T1 construct: Human TNFR2 over-expressed on CHO cells, full length on transduced NF-KB-GFP Jurkat cells, or native on human primary T cells; also called Hu TNFR2; TNFRSF1B
T1 sequence: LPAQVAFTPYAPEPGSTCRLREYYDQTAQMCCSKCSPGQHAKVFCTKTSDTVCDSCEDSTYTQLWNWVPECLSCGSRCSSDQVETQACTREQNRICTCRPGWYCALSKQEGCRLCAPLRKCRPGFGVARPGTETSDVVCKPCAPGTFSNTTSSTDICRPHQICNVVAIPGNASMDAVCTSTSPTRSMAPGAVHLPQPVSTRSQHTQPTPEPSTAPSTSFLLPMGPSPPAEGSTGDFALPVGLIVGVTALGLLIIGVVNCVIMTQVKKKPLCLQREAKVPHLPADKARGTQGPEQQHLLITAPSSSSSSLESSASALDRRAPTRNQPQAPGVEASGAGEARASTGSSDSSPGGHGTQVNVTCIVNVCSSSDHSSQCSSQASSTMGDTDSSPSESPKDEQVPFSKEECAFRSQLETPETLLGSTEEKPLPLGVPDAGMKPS
Put plainly: binding to human TNFR2 CHO cells.

Assay [2] addresses T2, human TNFR2 (human, UniProt P20333 23-461).
T2 construct: expressed on the surface of CHO cells; also called HuTNFR2; TNFRSF1B
T2 sequence: T1 sequence
Put plainly: binding to human TNFR2 CHO cells.

In general, EC50 refers to the concentration that produces a half-maximal response.

Changes are numbered by the printed parent chain.

With “MR2-1 (Hycult Biotech, ref #HM2007) (antibody)”, in the assay with human TNFR2 (human), the EC50 Jurkat assay, With aggregates was 0.12 µg/mL; the EC50 Jurkat assay, Without aggregates is 5.75 µg/mL; the Loss of potency (without against with aggregates) was 50 fold.

B1: clone 1774 (antibody, V domains shown)
VH: QVQLVQSGAEVKKPGASVKVSCKVSGFSFPSSGVDWVRQAPGQGLEWLGVTWGVGSTHYNQKFQGRVTITKDNSKSTVYMELSSLRSEDTAVYYCASGEWDEGFVYWGQGTLVTVSS
VL: DIQLTQSPSFLSASVGDRVTITCKASQNVGTAVAWYQQKPGKAPKLLIYSASNRYTGVPSRFSGSGSGTEFTLTISSLQPEDFATYYCQQYSSYPLTFGGGTKVEIK
As for B1, the EC50 in the assay with human TNFR2 [1] amounted to 1.56 nM.

B2: IgG 1991 (antibody, name in Kabat numbering, V domains shown)
VH: B1 VH with W52H, V54S, N73T, W100R
VL: DIQLTQSPSFLSASVGDRVTITCKASQNVGTAVAWYQQKPGKAPKLLIYAASTLQSGVPSRFSGSGSGTEFTLTISSLQPEDFATYYCQQYNSYPFGGGTKVEIKR
notes: IgG
With B2, the binding result in the assay with human TNFR2 [2] was “no binding”.

B3: IgG 1987 (antibody, name in Kabat numbering, V domains shown)
VH: B1 VH with W52L, V54H, N73T, W100R
VL: B2 VL
notes: IgG
With B3, the binding result with human TNFR2 [2] is “no binding”.

B4: IgG 2002 (antibody, name in Kabat numbering, V domains shown)
VH: B1 VH with W52F, G53Q, V54E, N73T, W100H
VL: B2 VL with N92Y, Y94T
notes: IgG
With B4, the binding result in the assay with human TNFR2 [2] was “no binding”.

B5: IgG 2202 (antibody, name in Kabat numbering, V domains shown)
VH: B1 VH with N73T
VL: B2 VL
notes: IgG
As for B5, the binding result with human TNFR2 [2] is “no binding”.

B6: clone 1773 (antibody, name in Kabat numbering, V domains shown)
VH: B1 VH
VL: B1 VL with S50A, N53T, R54L, Y55Q, T56S
B6 had an EC50 with human TNFR2 [1] of 1.13 nM.

B7: IgG 1989 (antibody, name in Kabat numbering, V domains shown)
VH: B1 VH with W52H, V54S, N73T, W100S, D101T
VL: B2 VL
notes: IgG
With B7, in the assay with human TNFR2 [2], the binding result is reported as “no binding”.

B8: IgG 1990 (antibody, name in Kabat numbering, V domains shown)
VH: B1 VH with W52H, V54S, N73T, W100H
VL: B2 VL
notes: IgG
As to B8, the binding result in the assay with human TNFR2 [2] is reported as “no binding”.

B9: IgG 1982 (antibody, name in Kabat numbering, V domains shown)
VH: B1 VH with W52F, G53Q, V54E, N73T, W100H
VL: B2 VL
notes: IgG
On to B9, for which, in the assay with human TNFR2 [2], the binding result was “no binding”.

B10: clone 1766 (antibody, V domains shown)
VH: B1 VH with N73T
VL: B1 VL
As to B10, the midpoint of the response with human TNFR2 [1], the EC50, lay at 1.19 nM. This counts as single-digit nanomolar.

B11: IgG 1997 (antibody, name in Kabat numbering, V domains shown)
VH: B1 VH with W52R, V54E, N73T, W100S, D101T
VL: B2 VL with N92Y, Y94T
notes: IgG
As for B11, the binding result in the assay with human TNFR2 [2] is given as “no binding”.

B12: IgG 2203 (antibody, name in Kabat numbering, V domains shown)
VH: B1 VH with N73T
VL: B2 VL with N92Y, Y94T
notes: IgG
For the molecule B12, in the assay with human TNFR2 [2], the binding result was “no binding”.

B13: TetraFab 2084 (antibody)
heavy: QVQLVQSGAEVKKPGASVKVSCKVSGFSFPSSGVDWVRQAPGQGLEWLGVTRGEGSTHYNQKFQGRVTITKDTSKSTVYMELSSLRSEDTAVYYCASGEWDEGFVYWGQGTLVTVSSASTKGPSVFPLAPSSKSTSGGTAALGCLVKDYFPEPVTVSWNSGALTSGVHTFPAVLQSSGLYSLSSVVTVPSSSLGTQTYICNVNHKPSNTKVDKKVEPKSCGGGGSQVQLVQSGAEVKKPGASVKVSCKVSGFSFPSSGVDWVRQAPGQGLEWLGVTRGEGSTHYNQKFQGRVTITKDTSKSTVYMELSSLRSEDTAVYYCASGEWDEGFVYWGQGTLVTVSSASTKGPSVFPLAPSSKSTSGGTAALGCLVKDYFPEPVTVSWNSGALTSGVHTFPAVLQSSGLYSLSSVVTVPSSSLGTQTYICNVNHKPSNTKVDKKVEPKSCDKTHTCPPCPAPEAAGAPSVFLFPPKPKDTLMISRTPEVTCVVVDVSHEDPEVKFNWYVDGVEVHNAKTKPREEQYNSTYRVVSVLTVLHQDWLNGKEYKCKVSNKALPAPIEKTISKAKGQPREPQVYTLPPSREEMTKNQVSLTCLVKGFYPSDIAVEWESNGQPENNYKTTPPVLDSDGSFFLYSKLTVDKSRWQQGNVFSCSVMHEALHNHYTQKSLSLSPGK
light: DIQLTQSPSFLSASVGDRVTITCKASQNVGTAVAWYQQKPGKAPKLLIYAASTLQSGVPSRFSGSGSGTEFTLTISSLQPEDFATYYCQQYNSYPFGGGTKVEIKRTVAAPSVFIFPPSDEQLKSGTASVVCLLNNFYPREAKVQWKVDNALQSGNSQESVTEQDSKDSTYSLSSTLTLSKADYEKHKVYACEVTHQGLSSPVTKSFNRGEC
notes: TetraFab
Turning to B13, the binding result in the assay with human TNFR2 [2] is recorded as “no binding”.

B14: TetraFab 2206 (antibody, human IgG1, kappa, name in Kabat numbering)
heavy: B13 heavy with R52W, E54V, R277W, E279V
light: DIQLTQSPSFLSASVGDRVTITCKASQNVGTAVAWYQQKPGKAPKLLIYAASTLQSGVPSRFSGSGSGTEFTLTISSLQPEDFATYYCQQYNSYPFGGGTKVEIKRTVAAPSVFIFPPSDEQLKSGVTASVVCLLNNFYPREAKVQWKVDNALQSGNSQESVTEQDSKDSTYSLSSTLTLSKADYEKHKVYACEVTHQGLSSPVTKSFNRGEC
notes: TetraFab; parental heavy chain
In the case of B14, the binding result with human TNFR2 [2] is “no binding”.

B15: TetraFab 2106 (antibody)
heavy: B13 heavy with R52L, E54H, W100R, R277L, E279H, W325R
light: B13 light
notes: TetraFab
For the molecule B15, in the assay with human TNFR2 [2], the binding result is “no binding”.

B16: TetraFab 2098 (antibody)
heavy: B13 heavy with W100R, W325R
light: B13 light
notes: TetraFab
Turning to B16, the binding result in the assay with human TNFR2 [2] was “no binding”.

B17: TetraFab 2096 (antibody)
heavy: B13 heavy with W100S, D101T, W325S, D326T
light: B13 light
notes: TetraFab
In the case of B17, the binding result with human TNFR2 [2] is reported as “no binding”.

B18: TetraFab 2112 (antibody)
heavy: B13 heavy with R52K, E54Q, R277K, E279Q
light: B13 light with N92Y, Y94T
notes: TetraFab
For the molecule B18, the binding result with human TNFR2 [2] is reported as “no binding”.

B19: TetraFab 2125 (antibody)
heavy: B13 heavy with W100S, D101T, W325S, D326T
light: B13 light with N92Y, Y94T
notes: TetraFab
In the case of B19, the binding result with human TNFR2 [2] is recorded as “no binding”.

B20: TetraFab 2099 (antibody)
heavy: B13 heavy with W100Q, W325Q
light: B13 light
notes: TetraFab
For the molecule B20, in the assay with human TNFR2 [2], the binding result was “no binding”.

B21: TetraFab 2108 (antibody)
heavy: B13 heavy with R52H, E54S, W100S, D101T, R277H, E279S, W325S, D326T
light: B13 light
notes: TetraFab
For B21, the binding result with human TNFR2 [2] was “no binding”.

B22: TetraFab 2109 (antibody)
heavy: B13 heavy with R52H, E54S, W100H, R277H, E279S, W325H
light: B13 light
notes: TetraFab
As for B22, in the assay with human TNFR2 [2], the binding result is given as “no binding”.

B23: TetraFab 2087 (antibody)
heavy: B13 heavy with R52H, E54S, R277H, E279S
light: B13 light
notes: TetraFab
For the molecule B23, the binding result with human TNFR2 [2] was “no binding”.

B24: TetraFab 2207 (antibody, human IgG1, kappa, name in Kabat numbering)
heavy: B13 heavy with R52W, E54V, R277W, E279V
light: B14 light with N92Y, Y94T
notes: as for B14
In the case of B24, the binding result with human TNFR2 [2] was “no binding”.

B25: TetraFab 2118 (antibody)
heavy: B13 heavy with R52W, E54V, W100H, R277W, E279V, W325H
light: B13 light with N92Y, Y94T
notes: TetraFab
B25: the binding result with human TNFR2 [2] is on record as “no binding”.

B26: TetraFab 2113 (antibody)
heavy: B13 heavy
light: B13 light with N92Y, Y94T
notes: TetraFab
For B26, in the assay with human TNFR2 [2], the binding result is “no binding”.
